Data reported in paper PMC12403569, “The regulatory network of Coprinopsis cinerea transcription factor Skn7 collaborates with bHLH1 during fungal-fungal interactions”.

Columns and labels:
[1] = molecular target: T1, Skn7 DBD (Coprinopsis cinerea, UniProt A8PG35 214-443); assay: EMSA; poly d(I-C); 25 mM HEPES, 4 mM DTT, 100 mM KCl, 2 mM MgCl2, 10% glycerol, 0.01 mg/mL BSA, pH 7.3; 200 ng probe, 200 ng poly d(I-C), 20 µL; temperature not stated; settings: protein: recombinant; tags: His-SUMO, removed with Ulp1; label: 5'-6-carboxyfluorescein
T1 sequence: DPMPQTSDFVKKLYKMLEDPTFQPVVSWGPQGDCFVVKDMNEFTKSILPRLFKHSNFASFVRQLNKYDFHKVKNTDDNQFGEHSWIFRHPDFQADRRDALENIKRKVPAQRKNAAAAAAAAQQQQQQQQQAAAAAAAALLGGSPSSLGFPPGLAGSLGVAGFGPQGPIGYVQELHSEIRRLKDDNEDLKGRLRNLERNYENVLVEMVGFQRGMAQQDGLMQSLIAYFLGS

[2] = molecular target: T2, truncated bHLH1 (Coprinopsis cinerea, UniProt A8P5K0 311-490); assay: EMSA; 25 mM HEPES, 4 mM DTT, 100 mM KCl, 2 mM MgCl2, 10% glycerol, 0.01 mg/mL BSA, pH 7.3; 200 ng probe, 200 ng poly d(I-C), 20 µL; temperature not stated; settings: protein: recombinant; tags: His; chain copies: 2
T2 sequence: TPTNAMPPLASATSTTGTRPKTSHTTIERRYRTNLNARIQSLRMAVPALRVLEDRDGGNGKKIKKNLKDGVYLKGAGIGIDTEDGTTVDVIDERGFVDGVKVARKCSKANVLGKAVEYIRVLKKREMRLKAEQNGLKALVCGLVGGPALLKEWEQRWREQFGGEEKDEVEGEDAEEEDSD

B1: nrps promoter probe (dsDNA)
DNA 1: TAACCATGTCCAACTCTAAT
DNA 2: ATTAGAGTTGGACATGGTTA
B1: binds [1].

B2: lcc9 promoter probe for bHLH1 (dsDNA)
DNA 1: ATTCATTCTGTCTAGAATGGG
DNA 2: CCCATTCTAGACAGAATGAAT
B2: binds [2].

B3: lcc9 promoter probe (dsDNA)
DNA 1: CATTCTGTCTAGAAT
DNA 2: ATTCTAGACAGAATG
B3: binds [1].

B4: easA promoter probe (dsDNA)
DNA 1: TGGTGGACAAGTTTCCGT
DNA 2: ACGGAAACTTGTCCACCA
B4: binds [1].

B5: sod2 promoter probe (dsDNA)
DNA 1: AGAAGGATCTAGAGACTCGG
DNA 2: CCGAGTCTCTAGATCCTTCT
B5: binds [1].

B6: gst promoter probe (dsDNA)
DNA 1: GATGTGTCGACGTCTGA
DNA 2: TCAGACGTCGACACATC
B6: binds [1].
